Data published in article PMC8580317.
Residue numbers refer to the chain shown, from its start. Values joined by “and” are separate entries in the source; they are usually repeats but may differ in a detail not shown here. Identical values can stand only once.

B1: recombinant WNT-5A (ligand)
chain: IIGAQPLCSQLAGLSQGQKKLCHLYQDHMQYIGEGAKTGIKECQYQFRHRRWNCSTVDNTSVFGRVMQIGSRETAFTYAVSAAGVVNAMSRACREGELSTCGCSRAARPKDLPRDWLWGGCGDNIDYGYRFAKEFVDARERERIHAKGSYESARILMNLHNNEAGRRTVYNLADVACKCHGVSGSCSLKTCWLQLADFRKVGDALKEKYDSAAAMRLNSRGKLVQVNSRFNSPTTQDLVYIDPSPDYCVRNESTGSLGTQGRLCNKTSEGMDGCELMCCGRGYDQFKTVQTERCHCKFHWCCYVKCKKCTEIVDQFVCK

Columns and labels:
FZD5 CRD = FZD5 CRD (UniProt Q13467); details: cited from earlier work
[1] = biological target: Nluc-FZD6-K466K-Cy3 sensor (human) (UniProt O60353)
[2] = biological target: Nluc-FZD6-K466K-Cy3 sensor (human) (UniProt O60353); remark: listed apart in the source
[3] = biological target: T1, Nluc-FZD6-K466K-Cy3 dimer mutant (D365A/R368A/Y369A) (human) (UniProt O60353)
T1 sequence (chain, trans-cyclooct-2-ene-L-lysine (TCO*K) at 466, labelled with Tet-Cy3): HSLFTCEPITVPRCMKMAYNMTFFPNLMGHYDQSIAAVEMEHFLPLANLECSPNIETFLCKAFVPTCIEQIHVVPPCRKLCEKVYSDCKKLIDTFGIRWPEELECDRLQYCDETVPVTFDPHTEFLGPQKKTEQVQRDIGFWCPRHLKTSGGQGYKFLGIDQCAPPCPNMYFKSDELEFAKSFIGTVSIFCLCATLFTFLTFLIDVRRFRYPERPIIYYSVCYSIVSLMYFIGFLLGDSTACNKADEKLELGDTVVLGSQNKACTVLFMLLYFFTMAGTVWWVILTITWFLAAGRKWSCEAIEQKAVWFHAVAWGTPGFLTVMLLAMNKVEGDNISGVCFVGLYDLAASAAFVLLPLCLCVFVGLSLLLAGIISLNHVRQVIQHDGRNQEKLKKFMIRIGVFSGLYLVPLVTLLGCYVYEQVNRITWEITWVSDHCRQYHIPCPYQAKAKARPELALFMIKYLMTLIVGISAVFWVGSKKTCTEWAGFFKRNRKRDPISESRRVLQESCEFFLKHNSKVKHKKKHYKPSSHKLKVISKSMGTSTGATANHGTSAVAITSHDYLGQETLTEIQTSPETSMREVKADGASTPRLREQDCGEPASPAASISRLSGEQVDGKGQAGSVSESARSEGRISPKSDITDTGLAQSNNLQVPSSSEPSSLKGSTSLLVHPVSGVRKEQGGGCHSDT

[4] = biological target: Nluc-FZD6-K466K-Cy3 sensor (human) (UniProt O60353); remark: listed apart in the source
[5] = biological target: T2, Nluc-FZD6-Q171K-Cy3 sensor (human) (UniProt O60353)
T2 sequence (chain, trans-cyclooct-2-ene-L-lysine (TCO*K) at 171, labelled with Tet-Cy3): T1 sequence (chain, trans-cyclooct-2-ene-L-lysine (TCO*K) at 466, labelled with Tet-Cy3) with Q153K, A347D, A350R, A351Y

[6] = biological target: Nluc-FZD5-Q493K-Cy3 sensor (human) (UniProt Q13467)

| Molecule | Kd (FZD5 CRD) | EC50 of the WNT-5A-induced BRET signal of the sensor (concentration-response curve), HEK293T cells [1] | fitted plateau of the WNT-5A-induced BRET response of the sensor (experiment beside the dimer mutant), HEK293T cells [2] | fitted plateau of the WNT-5A-induced BRET response of the sensor, HEK293T cells [3] | fitted maximal ∆BRET amplitude of the Cy3-labelled sensor upon WNT-5A (3 μg/ml), HEK293T cells [4] | fitted maximal ∆BRET amplitude of the Cy3-labelled sensor upon WNT-5A (3 μg/ml), HEK293T cells [5] | maximal ∆BRET amplitude of the Cy3-labelled sensor upon WNT-5A (3 μg/ml), HEK293T cells [6] |
| --- | --- | --- | --- | --- | --- | --- | --- |
| WNT-3A (from UniProt P56704) | 3.1 nM | – | – | – | – | – | – |
| B1 | – | 22.4 nM and 850 ng/ml | -19.7% | -10.2% | -26.4% | -11.6% | -15.6% |
